Source: US20140271457A1 (AbbVie / Abbott, published 2014)

Biological target: Recombinant Human TNF-α/TNFSF1A (human, UniProt P01375 77-233)
Assay: cell-based or functional assay

Sequence of Recombinant Human TNF-α/TNFSF1A (P01375 77-233 limits assumed): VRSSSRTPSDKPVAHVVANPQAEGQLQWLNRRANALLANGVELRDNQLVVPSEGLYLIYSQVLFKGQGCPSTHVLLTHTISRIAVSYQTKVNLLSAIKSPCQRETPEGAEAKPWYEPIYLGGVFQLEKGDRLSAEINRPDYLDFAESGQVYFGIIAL

| Binder | C-Terminal VD huTNFα Neutralization Assay IC50 [nM] | N-Terminal VD huTNFα Neutralization Assay IC50 [nM] |
| --- | --- | --- |
| DVD3012 (bispecific antibody, IgG1) VH: EVQLVQSGAEVKKPGASVKVSCKASGYTFNNYGIIWVRQAPGQGLEWMGWINTYTGKPTYAQKFQGRVTMTTDTSTSTAYMELSSLRSEDTAVYYCARKLFNTVAVTDNAMDYWGQGTTVTVSSASTKGPSVFPLAPEVTLRESGPGLVKPTQTLTLTCTLYGFSLSTSDMGVDWIRQPPGKGLEWLAHIWWDDVKRYNPALKSRLTISKDTSKNQVVLKLTSVDPVDTATYYCARTVSSGYIYYAMDYWGQGTLVTVSS VL: DIQMTQSPSSLSASVGDRVTITCRASQDIENYLNWYQQKPGKAPKLLIYYTSRLQSGVPSRFSGSGSGTDFTLTISSLQPEDFATYFCQQGNTQPPTFGQGTKLEIKRTVAAPDIQMTQSPSSLSASVGDRVTISCRASQDIRNYLNWYQQKPGKAPKLLIFYTSKLHSGVPSRFSGSGSGTDYTLTISSLQPEDIATYYCQQGLTPPLTFGGGTKVEIKR | – | 0.034 |
| DVD3011 (bispecific antibody, IgG1) VH: EVQLVQSGAEVKKPGASVKVSCKASGYTFNNYGIIWVRQAPGQGLEWMGWINTYTGKPTYAQKFQGRVTMTTDTSTSTAYMELSSLRSEDTAVYYCARKLFNTVAVTDNAMDYWGQGTTVTVSSASTKGPEVTLRESGPGLVKPTQTLTLTCTLYGFSLSTSDMGVDWIRQPPGKGLEWLAHIWWDDVKRYNPALKSRLTISKDTSKNQVVLKLTSVDPVDTATYYCARTVSSGYIYYAMDYWGQGTLVTVSS VL: DIQMTQSPSSLSASVGDRVTITCRASQDIENYLNWYQQKPGKAPKLLIYYTSRLQSGVPSRFSGSGSGTDFTLTISSLQPEDFATYFCQQGNTQPPTFGQGTKLEIKRTVAAPSVFIFPPDIQMTQSPSSLSASVGDRVTISCRASQDIRNYLNWYQQKPGKAPKLLIFYTSKLHSGVPSRFSGSGSGTDYTLTISSLQPEDIATYYCQQGLTPPLTFGGGTKVEIKR | – | 0.024 |
| DVD2789 (bispecific antibody, IgG1) VH: EVTLRESGPGLVKPTQTLTLTCTLYGFSLSTSDMGVDWIRQPPGKGLEWLAHIWWDDVKRYNPALKSRLTISKDTSKNQVVLKLTSVDPVDTATYYCARTVSSGYIYYAMDYWGQGTLVTVSSASTKGPEVQLVQSGAEVKKPGASVKVSCKASGYTFANYGIIWVRQAPGQGLEWMGWINTYTGKPTYAQKFQGRVTMTTDTSTSTAYMELSSLRSEDTAVYYCARKLFTTMDVTDNAMDYWGQGTTVTVSS VL: DIQMTQSPSSLSASVGDRVTISCRASQDIRNYLNWYQQKPGKAPKLLIFYTSKLHSGVPSRFSGSGSGTDYTLTISSLQPEDIATYYCQQGLTPPLTFGGGTKVEIKRTVAAPDIQMTQSPSSLSASVGDRVTITCRASQDISQYLNWYQQKPGKAPKLLIYYTSRLQSGVPSRFSGSGSGTDFTLTISSLQPEDFATYFCQQGNTWPPTFGQGTKLEIKR | 0.186 | – |
| DVD2792 (bispecific antibody, IgG1) VH: EVTLRESGPGLVKPTQTLTLTCTLYGFSLSTSDMGVDWIRQPPGKGLEWLAHIWWDDVKRYNPALKSRLTISKDTSKNQVVLKLTSVDPVDTATYYCARTVSSGYIYYAMDYWGQGTLVTVSSASTKGPSVFPLAPEVQLVQSGAEVKKPGASVKVSCKASGYTFANYGIIWVRQAPGQGLEWMGWINTYTGKPTYAQKFQGRVTMTTDTSTSTAYMELSSLRSEDTAVYYCARKLFTTMDVTDNAMDYWGQGTTVTVSS VL: DIQMTQSPSSLSASVGDRVTISCRASQDIRNYLNWYQQKPGKAPKLLIFYTSKLHSGVPSRFSGSGSGTDYTLTISSLQPEDIATYYCQQGLTPPLTFGGGTKVEIKRTVAAPDIQMTQSPSSLSASVGDRVTITCRASQDISQYLNWYQQKPGKAPKLLIYYTSRLQSGVPSRFSGSGSGTDFTLTISSLQPEDFATYFCQQGNTWPPTFGQGTKLEIKR | 0.136 | – |
| DVD2791 (bispecific antibody, IgG1) VH: EVTLRESGPGLVKPTQTLTLTCTLYGFSLSTSDMGVDWIRQPPGKGLEWLAHIWWDDVKRYNPALKSRLTISKDTSKNQVVLKLTSVDPVDTATYYCARTVSSGYIYYAMDYWGQGTLVTVSSASTKGPEVQLVQSGAEVKKPGASVKVSCKASGYTFANYGIIWVRQAPGQGLEWMGWINTYTGKPTYAQKFQGRVTMTTDTSTSTAYMELSSLRSEDTAVYYCARKLFTTMDVTDNAMDYWGQGTTVTVSS VL: DIQMTQSPSSLSASVGDRVTISCRASQDIRNYLNWYQQKPGKAPKLLIFYTSKLHSGVPSRFSGSGSGTDYTLTISSLQPEDIATYYCQQGLTPPLTFGGGTKVEIKRTVAAPSVFIFPPDIQMTQSPSSLSASVGDRVTITCRASQDISQYLNWYQQKPGKAPKLLIYYTSRLQSGVPSRFSGSGSGTDFTLTISSLQPEDFATYFCQQGNTWPPTFGQGTKLEIKR | 0.064 | – |
| DVD3014 (bispecific antibody, IgG1) VH: EVTLRESGPGLVKPTQTLTLTCTLYGFSLSTSDMGVDWIRQPPGKGLEWLAHIWWDDVKRYNPALKSRLTISKDTSKNQVVLKLTSVDPVDTATYYCARTVSSGYIYYAMDYWGQGTLVTVSSASTKGPEVQLVQSGAEVKKPGASVKVSCKASGYTFNNYGIIWVRQAPGQGLEWMGWINTYTGKPTYAQKFQGRVTMTTDTSTSTAYMELSSLRSEDTAVYYCARKLFNTVAVTDNAMDYWGQGTTVTVSS VL: DIQMTQSPSSLSASVGDRVTISCRASQDIRNYLNWYQQKPGKAPKLLIFYTSKLHSGVPSRFSGSGSGTDYTLTISSLQPEDIATYYCQQGLTPPLTFGGGTKVEIKRTVAAPDIQMTQSPSSLSASVGDRVTITCRASQDIENYLNWYQQKPGKAPKLLIYYTSRLQSGVPSRFSGSGSGTDFTLTISSLQPEDFATYFCQQGNTQPPTFGQGTKLEIKR | 0.49 | – |
| DVD3013 (bispecific antibody, IgG1) VH: EVTLRESGPGLVKPTQTLTLTCTLYGFSLSTSDMGVDWIRQPPGKGLEWLAHIWWDDVKRYNPALKSRLTISKDTSKNQVVLKLTSVDPVDTATYYCARTVSSGYIYYAMDYWGQGTLVTVSSGGGGSGGGGSEVQLVQSGAEVKKPGASVKVSCKASGYTFNNYGIIWVRQAPGQGLEWMGWINTYTGKPTYAQKFQGRVTMTTDTSTSTAYMELSSLRSEDTAVYYCARKLFNTVAVTDNAMDYWGQGTTVTVSS VL: DIQMTQSPSSLSASVGDRVTISCRASQDIRNYLNWYQQKPGKAPKLLIFYTSKLHSGVPSRFSGSGSGTDYTLTISSLQPEDIATYYCQQGLTPPLTFGGGTKVEIKRGGSGGGGSGDIQMTQSPSSLSASVGDRVTITCRASQDIENYLNWYQQKPGKAPKLLIYYTSRLQSGVPSRFSGSGSGTDFTLTISSLQPEDFATYFCQQGNTQPPTFGQGTKLEIKR | 0.229 | – |

Other lines, results leading:

| C-Terminal VD huTNFα Neutralization Assay IC50 [nM] | N-Terminal VD huTNFα Neutralization Assay IC50 [nM] | Binder |
| --- | --- | --- |
| 0.472 | – | DVD3088 (bispecific antibody, IgG1) VH: EVQLVQSGAEVKKPGASVKVSCKASGYTFTTYGVSWVRQAPGQGLEWMGEIYPGNYNTYYNEKFRGRVTMTTDTSTSTAYMELRSLRSDDTAVYYCARWRTSYFSDYGYFDYWGQGTTVTVSSGGGGSGGGGSEVQLVESGGGLVQPGGSLRLSCAASGFTFSNYGVTWVRQAPGKGLEWVSMIWADGSTHYASSVKGRFTISRDNSKNTLYLQMNSLRAEDTAVYYCAREWQHGPVAYWGQGTLVTVSS VL: DVVMTQSPLSLPVTLGQPASISCRSSQSLVHSHGNTYLHWYQQRPGQSPRLLIYTVSNRFSGVPDRFSGSGSGTDFTLKISRVEAEDVGVYYCSQSTHVPYTFGGGTKVEIKRGGSGGGGSGDIQMTQSPSSLSASVGDRVTITCRASQLVSSAVAWYQQKPGKAPKLLIYWASARHTGVPSRFSGSGSGTDFTLTISSLQPEDFATYYCQQHYKTPFTFGQGTKLEIKR |
| 0.52 | – | DVD3089 (bispecific antibody, IgG1) VH: EVQLVQSGAEVKKPGASVKVSCKASGYTFTTYGVSWVRQAPGQGLEWMGEIYPGNYNTYYNEKFRGRVTMTTDTSTSTAYMELRSLRSDDTAVYYCARWRTSYFSDYGYFDYWGQGTTVTVSSASTKGPEVQLVESGGGLVQPGGSLRLSCAASGFTFSNYGVTWVRQAPGKGLEWVSMIWADGSTHYASSVKGRFTISRDNSKNTLYLQMNSLRAEDTAVYYCAREWQHGPVAYWGQGTLVTVSS VL: DVVMTQSPLSLPVTLGQPASISCRSSQSLVHSHGNTYLHWYQQRPGQSPRLLIYTVSNRFSGVPDRFSGSGSGTDFTLKISRVEAEDVGVYYCSQSTHVPYTFGGGTKVEIKRTVAAPDIQMTQSPSSLSASVGDRVTITCRASQLVSSAVAWYQQKPGKAPKLLIYWASARHTGVPSRFSGSGSGTDFTLTISSLQPEDFATYYCQQHYKTPFTFGQGTKLEIKR |
| 0.192 | – | DVD3091 (bispecific antibody, IgG1) VH: EVQLVQSGAEVKKPGASVKVSCKASGYTFTTYGVSWVRQAPGQGLEWMGEIYPGNYNTYYNEKFRGRVTMTTDTSTSTAYMELRSLRSDDTAVYYCARWRTSYFSDYGYFDYWGQGTTVTVSSASTKGPEVQLVESGGGLVQPGGSLRLSCAASGFTFSNYGVTWVRQAPGKGLEWVSMIWADGSTHYASSVKGRFTISRDNSKNTLYLQMNSLRAEDTAVYYCAREWQHGPVAYWGQGTLVTVSS VL: DVVMTQSPLSLPVTLGQPASISCRSSQSLVHSHGNTYLHWYQQRPGQSPRLLIYTVSNRFSGVPDRFSGSGSGTDFTLKISRVEAEDVGVYYCSQSTHVPYTFGGGTKVEIKRTVAAPSVFIFPPDIQMTQSPSSLSASVGDRVTITCRASQLVSSAVAWYQQKPGKAPKLLIYWASARHTGVPSRFSGSGSGTDFTLTISSLQPEDFATYYCQQHYKTPFTFGQGTKLEIKR |
| 0.148 | – | DVD3016 (bispecific antibody, IgG1) VH: EVTLRESGPGLVKPTQTLTLTCTLYGFSLSTSDMGVDWIRQPPGKGLEWLAHIWWDDVKRYNPALKSRLTISKDTSKNQVVLKLTSVDPVDTATYYCARTVSSGYIYYAMDYWGQGTLVTVSSASTKGPEVQLVQSGAEVKKPGASVKVSCKASGYTFNNYGIIWVRQAPGQGLEWMGWINTYTGKPTYAQKFQGRVTMTTDTSTSTAYMELSSLRSEDTAVYYCARKLFNTVAVTDNAMDYWGQGTTVTVSS VL: DIQMTQSPSSLSASVGDRVTISCRASQDIRNYLNWYQQKPGKAPKLLIFYTSKLHSGVPSRFSGSGSGTDYTLTISSLQPEDIATYYCQQGLTPPLTFGGGTKVEIKRTVAAPSVFIFPPDIQMTQSPSSLSASVGDRVTITCRASQDIENYLNWYQQKPGKAPKLLIYYTSRLQSGVPSRFSGSGSGTDFTLTISSLQPEDFATYFCQQGNTQPPTFGQGTKLEIKR |
| 0.234 | – | DVD3017 (bispecific antibody, IgG1) VH: EVTLRESGPGLVKPTQTLTLTCTLYGFSLSTSDMGVDWIRQPPGKGLEWLAHIWWDDVKRYNPALKSRLTISKDTSKNQVVLKLTSVDPVDTATYYCARTVSSGYIYYAMDYWGQGTLVTVSSASTKGPSVFPLAPEVQLVQSGAEVKKPGASVKVSCKASGYTFNNYGIIWVRQAPGQGLEWMGWINTYTGKPTYAQKFQGRVTMTTDTSTSTAYMELSSLRSEDTAVYYCARKLFNTVAVTDNAMDYWGQGTTVTVSS VL: DIQMTQSPSSLSASVGDRVTISCRASQDIRNYLNWYQQKPGKAPKLLIFYTSKLHSGVPSRFSGSGSGTDYTLTISSLQPEDIATYYCQQGLTPPLTFGGGTKVEIKRTVAAPDIQMTQSPSSLSASVGDRVTITCRASQDIENYLNWYQQKPGKAPKLLIYYTSRLQSGVPSRFSGSGSGTDFTLTISSLQPEDFATYFCQQGNTQPPTFGQGTKLEIKR |
